Patent publication US20230054860

Target: WDR26 (endogenous) (UniProt Q9H7D7)
Chain of UniProt Q9H7D7 (Q9H7D7 whole entry): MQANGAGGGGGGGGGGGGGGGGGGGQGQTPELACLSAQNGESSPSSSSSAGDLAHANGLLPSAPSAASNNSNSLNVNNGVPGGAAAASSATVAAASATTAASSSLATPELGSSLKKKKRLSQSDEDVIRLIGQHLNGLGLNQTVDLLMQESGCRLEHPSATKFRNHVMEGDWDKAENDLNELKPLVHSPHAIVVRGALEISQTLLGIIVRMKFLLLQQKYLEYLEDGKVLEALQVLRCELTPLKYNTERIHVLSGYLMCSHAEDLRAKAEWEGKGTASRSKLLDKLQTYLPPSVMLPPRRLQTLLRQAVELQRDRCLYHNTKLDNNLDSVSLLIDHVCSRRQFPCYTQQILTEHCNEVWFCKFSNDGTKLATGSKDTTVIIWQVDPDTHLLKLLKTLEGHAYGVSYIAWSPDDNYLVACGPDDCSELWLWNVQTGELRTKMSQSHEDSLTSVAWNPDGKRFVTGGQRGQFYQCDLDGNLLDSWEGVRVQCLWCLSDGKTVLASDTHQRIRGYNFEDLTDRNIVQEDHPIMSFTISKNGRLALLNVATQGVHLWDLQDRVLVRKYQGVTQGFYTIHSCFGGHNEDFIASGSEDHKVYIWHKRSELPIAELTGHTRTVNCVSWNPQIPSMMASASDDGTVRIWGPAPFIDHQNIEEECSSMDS

## AKT (endogenous)
  AKT phosphorylation levels (pAKT S473, western blot): ultimately leading to a decrease in AKT phosphorylation levels
